Test results: paper PMC4441544

Target: voltage-dependent anion channel (VDAC) (rat (endogenous in rat cortex)) (UniProt Q9Z2L0)
Assay: co-IP

Chain of UniProt Q9Z2L0 (Q9Z2L0 whole entry): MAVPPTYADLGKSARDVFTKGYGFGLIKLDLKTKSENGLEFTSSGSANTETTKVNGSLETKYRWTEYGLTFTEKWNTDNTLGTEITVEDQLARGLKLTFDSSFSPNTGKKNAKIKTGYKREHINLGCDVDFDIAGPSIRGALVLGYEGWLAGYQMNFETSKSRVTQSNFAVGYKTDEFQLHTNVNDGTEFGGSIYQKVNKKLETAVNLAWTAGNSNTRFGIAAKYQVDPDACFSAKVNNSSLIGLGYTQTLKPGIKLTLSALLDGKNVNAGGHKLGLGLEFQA

percent reduction of HK1-VDAC binding at 100 µM peptide (lower VDAC band, VDAC3): 66.1% | percent reduction of HK1-VDAC binding at 100 µM peptide (total VDAC): 50.4%
Substance: Hexokinase II VDAC binding domain peptide (fused to Antennapedia homeo-domain)
